Reference: ChEMBL document CHEMBL3525955, “Glucuronidation of the red clover isoflavone irilone by liver microsomes from different species and human UDP-glucuronosyltransferases” (Drug Metab Dispos, 2011)

Key:
Format in all cases: ADME
[1] = molecular target: T1, UDP-glucuronosyltransferase 1A10 (Homo sapiens, UniProt Q9HAW8); assay: Drug level assessed as human recombinant UGT1A10-mediated glucuronidation treated with irilone incubated for 5 mins prior to UDPGA addition measured after 90 mins by HPLC-DAD analysis; details: recombinant enzyme, 1.5 h
T1 sequence (Q9HAW8 whole entry): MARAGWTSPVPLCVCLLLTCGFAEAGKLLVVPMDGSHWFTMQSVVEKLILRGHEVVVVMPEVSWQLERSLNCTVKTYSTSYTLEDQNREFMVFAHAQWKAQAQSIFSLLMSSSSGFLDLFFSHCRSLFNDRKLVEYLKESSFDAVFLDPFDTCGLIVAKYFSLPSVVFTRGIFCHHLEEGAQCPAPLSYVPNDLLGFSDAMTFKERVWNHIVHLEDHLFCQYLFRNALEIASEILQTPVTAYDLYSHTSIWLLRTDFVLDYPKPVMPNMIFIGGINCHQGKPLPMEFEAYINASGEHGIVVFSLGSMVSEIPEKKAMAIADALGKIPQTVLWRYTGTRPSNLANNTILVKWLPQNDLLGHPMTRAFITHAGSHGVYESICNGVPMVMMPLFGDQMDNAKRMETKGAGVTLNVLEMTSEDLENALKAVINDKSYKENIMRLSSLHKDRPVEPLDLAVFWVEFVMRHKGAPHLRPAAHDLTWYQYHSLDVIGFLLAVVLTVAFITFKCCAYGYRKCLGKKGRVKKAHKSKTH

[2] = substrate: O=c1c(-c2ccc(O)cc2)coc2cc3c(c(O)c12)OCO3; assay: Activity of human recombinant UGT1A1 assessed as IRI-O-4'-monoglucuronide formation incubated for 5 mins prior to UDPGA addition measured after 90 mins by Eadie-Hoftsee plot analysis
[3] = substrate: O=c1c(-c2ccc(O)cc2)coc2cc3c(c(O)c12)OCO3; assay: Activity of human recombinant UGT1A1 assessed as IRI-O-5-monoglucuronide formation incubated for 5 mins prior to UDPGA addition measured after 90 mins by Eadie-Hoftsee plot analysis
[4] = substrate: O=c1c(-c2ccc(O)cc2)coc2cc3c(c(O)c12)OCO3; assay: Activity of human recombinant UGT1A7 assessed as IRI-O-5-monoglucuronide formation incubated for 5 mins prior to UDPGA addition measured after 90 mins by Eadie-Hoftsee plot analysis
[5] = substrate: O=c1c(-c2ccc(O)cc2)coc2cc3c(c(O)c12)OCO3; assay: Activity of human recombinant UGT1A8 assessed as IRI-O-5-monoglucuronide formation incubated for 5 mins prior to UDPGA addition measured after 90 mins by Eadie-Hoftsee plot analysis
[6] = substrate: O=c1c(-c2ccc(O)cc2)coc2cc3c(c(O)c12)OCO3; assay: Activity of human recombinant UGT1A8 assessed as IRI-O-4'-monoglucuronide formation incubated for 5 mins prior to UDPGA addition measured after 90 mins by Eadie-Hoftsee plot analysis
[7] = substrate: O=c1c(-c2ccc(O)cc2)coc2cc3c(c(O)c12)OCO3; assay: Activity of human recombinant UGT1A9 assessed as IRI-O-5-monoglucuronide formation incubated for 5 mins prior to UDPGA addition measured after 90 mins by Eadie-Hoftsee plot analysis
[8] = substrate: O=c1c(-c2ccc(O)cc2)coc2cc3c(c(O)c12)OCO3; assay: Activity of human recombinant UGT1A10 assessed as IRI-O-4'-monoglucuronide formation incubated for 5 mins prior to UDPGA addition measured after 90 mins by Eadie-Hoftsee plot analysis

In the case of `COc1c2c(cc3occ(-c4ccc(O[C@@H]5O[C@H](C(=O)O)[C@@H](O)[C@H](O)[C@H]5O)cc4)c(=O)c13)OCO2`, the Drug metabolism [1] is reported as “metabolite_detected”.

B1: UDP-glucuronosyltransferase 1A1 (Homo sapiens) (protein)
chain: MAVESQGGRPLVLGLLLCVLGPVVSHAGKILLIPVDGSHWLSMLGAIQQLQQRGHEIVVLAPDASLYIRDGAFYTLKTYPVPFQREDVKESFVSLGHNVFENDSFLQRVIKTYKKIKKDSAMLLSGCSHLLHNKELMASLAESSFDVMLTDPFLPCSPIVAQYLSLPTVFFLHALPCSLEFEATQCPNPFSYVPRPLSSHSDHMTFLQRVKNMLIAFSQNFLCDVVYSPYATLASEFLQREVTVQDLLSSASVWLFRSDFVKDYPRPIMPNMVFVGGINCLHQNPLSQEFEAYINASGEHGIVVFSLGSMVSEIPEKKAMAIADALGKIPQTVLWRYTGTRPSNLANNTILVKWLPQNDLLGHPMTRAFITHAGSHGVYESICNGVPMVMMPLFGDQMDNAKRMETKGAGVTLNVLEMTSEDLENALKAVINDKSYKENIMRLSSLHKDRPVEPLDLAVFWVEFVMRHKGAPHLRPAAHDLTWYQYHSLDVIGFLLAVVLTVAFITFKCCAYGYRKCLGKKGRVKKAHKSKTH
With B1 the Km [2] was 32.9 µM, the Vmax [2] was 0.00014 µmol/min/mg and the Km [3] was 24.6 µM. The Vmax [3] was 0.00067 µmol/min/mg.

B2: UDP-glucuronosyltransferase 1A7 (Homo sapiens) (protein)
chain: MARAGWTGLLPLYVCLLLTCGFAKAGKLLVVPMDGSHWFTMQSVVEKLILRGHEVVVVMPEVSWQLGRSLNCTVKTYSTSYTLEDQDREFMVFADARWTAPLRSAFSLLTSSSNGIFDLFFSNCRSLFNDRKLVEYLKESCFDAVFLDPFDACGLIVAKYFSLPSVVFARGIFCHYLEEGAQCPAPLSYVPRLLLGFSDAMTFKERVWNHIMHLEEHLFCPYFFKNVLEIASEILQTPVTAYDLYSHTSIWLLRTDFVLEYPKPVMPNMIFIGGINCHQGKPVPMEFEAYINASGEHGIVVFSLGSMVSEIPEKKAMAIADALGKIPQTVLWRYTGTRPSNLANNTILVKWLPQNDLLGHPMTRAFITHAGSHGVYESICNGVPMVMMPLFGDQMDNAKRMETKGAGVTLNVLEMTSEDLENALKAVINDKSYKENIMRLSSLHKDRPVEPLDLAVFWVEFVMRHKGAPHLRPAAHDLTWYQYHSLDVIGFLLAVVLTVAFITFKCCAYGYRKCLGKKGRVKKAHKSKTH
B2 was tested, and the Km [4] was 9.4 µM and the Vmax [4] was 4e-05 µmol/min/mg.

B3: UDP-glucuronosyltransferase 1A8 (Homo sapiens) (protein)
chain: MARTGWTSPIPLCVSLLLTCGFAEAGKLLVVPMDGSHWFTMQSVVEKLILRGHEVVVVMPEVSWQLGKSLNCTVKTYSTSYTLEDLDREFMDFADAQWKAQVRSLFSLFLSSSNGFFNLFFSHCRSLFNDRKLVEYLKESSFDAVFLDPFDACGLIVAKYFSLPSVVFARGIACHYLEEGAQCPAPLSYVPRILLGFSDAMTFKERVRNHIMHLEEHLFCQYFSKNALEIASEILQTPVTAYDLYSHTSIWLLRTDFVLDYPKPVMPNMIFIGGINCHQGKPLPMEFEAYINASGEHGIVVFSLGSMVSEIPEKKAMAIADALGKIPQTVLWRYTGTRPSNLANNTILVKWLPQNDLLGHPMTRAFITHAGSHGVYESICNGVPMVMMPLFGDQMDNAKRMETKGAGVTLNVLEMTSEDLENALKAVINDKSYKENIMRLSSLHKDRPVEPLDLAVFWVEFVMRHKGAPHLRPAAHDLTWYQYHSLDVIGFLLAVVLTVAFITFKCCAYGYRKCLGKKGRVKKAHKSKTH
B3 gave a Km [5] of 70.9 µM, a Vmax [5] of 0.001 µmol/min/mg and a Km [6] of 87.5 µM. It also gave a Vmax [6] of 0.00054 µmol/min/mg.

B4: UDP-glucuronosyltransferase 1A9 (Homo sapiens) (protein)
chain: MACTGWTSPLPLCVCLLLTCGFAEAGKLLVVPMDGSHWFTMRSVVEKLILRGHEVVVVMPEVSWQLGRSLNCTVKTYSTSYTLEDLDREFKAFAHAQWKAQVRSIYSLLMGSYNDIFDLFFSNCRSLFKDKKLVEYLKESSFDAVFLDPFDNCGLIVAKYFSLPSVVFARGILCHYLEEGAQCPAPLSYVPRILLGFSDAMTFKERVRNHIMHLEEHLLCHRFFKNALEIASEILQTPVTEYDLYSHTSIWLLRTDFVLDYPKPVMPNMIFIGGINCHQGKPLPMEFEAYINASGEHGIVVFSLGSMVSEIPEKKAMAIADALGKIPQTVLWRYTGTRPSNLANNTILVKWLPQNDLLGHPMTRAFITHAGSHGVYESICNGVPMVMMPLFGDQMDNAKRMETKGAGVTLNVLEMTSEDLENALKAVINDKSYKENIMRLSSLHKDRPVEPLDLAVFWVEFVMRHKGAPHLRPAAHDLTWYQYHSLDVIGFLLAVVLTVAFITFKCCAYGYRKCLGKKGRVKKAHKSKTH
In the case of B4, the Km [7] is reported as 5 µM and the Vmax [7] is reported as 0.00027 µmol/min/mg.

B5: UDP-glucuronosyltransferase 1A10 (Homo sapiens) (protein)
chain: MARAGWTSPVPLCVCLLLTCGFAEAGKLLVVPMDGSHWFTMQSVVEKLILRGHEVVVVMPEVSWQLERSLNCTVKTYSTSYTLEDQNREFMVFAHAQWKAQAQSIFSLLMSSSSGFLDLFFSHCRSLFNDRKLVEYLKESSFDAVFLDPFDTCGLIVAKYFSLPSVVFTRGIFCHHLEEGAQCPAPLSYVPNDLLGFSDAMTFKERVWNHIVHLEDHLFCQYLFRNALEIASEILQTPVTAYDLYSHTSIWLLRTDFVLDYPKPVMPNMIFIGGINCHQGKPLPMEFEAYINASGEHGIVVFSLGSMVSEIPEKKAMAIADALGKIPQTVLWRYTGTRPSNLANNTILVKWLPQNDLLGHPMTRAFITHAGSHGVYESICNGVPMVMMPLFGDQMDNAKRMETKGAGVTLNVLEMTSEDLENALKAVINDKSYKENIMRLSSLHKDRPVEPLDLAVFWVEFVMRHKGAPHLRPAAHDLTWYQYHSLDVIGFLLAVVLTVAFITFKCCAYGYRKCLGKKGRVKKAHKSKTH
With B5 the Km [8] was 10.3 µM and the Vmax [8] was 0.00103 µmol/min/mg.
